Reference: publication PMC11999606, “Dynein light chains 1 and 2 are auxiliary proteins of pH-sensitive Kir4.1 channels” (The Journal of Biological Chemistry, 2025)

B1: full-length Kir4.1 protein with the ΔTQT deletion (natural protein, UniProt P78508 1-379, looked up)
chain: MTSVAKVYYSQTESRPLMGPGIRRRRVLTKDGRSNVRMEHIADKRFLYLKDLWTTFIDMQWRYKLLLFSATFAGTWFLFGVVWYLVAVAHGDLLELDPPANHTPCVVQVHTLTGAFLFSLESQTTIGYGFRYISEECPLAIVLLIAQLVLTTILEIFITGTFLAKIARPKKRAETIRFSQHAVVASHNGKPCLMIRVANMRKSLLIGCQVTGKLLQTHQTKEGENIRLNQVNVTFQVDTASDSPFLILPLTFYHVVDETSPLKDLPLRSGEGDFELVLILSGTVESTSATCQVRTSYLPEEILWGYEFTPAISLSASGKYIADFSLFDQVVKVASPSGLRDSTVRYGDPEKLKLEESLREQAEKEGSALSVRISNV
notes: Kir4.1 (KCNJ10), full length, with the three TQT residues (13-15) deleted; also called Kir4.1-ΔTQT; not shown: GFP, N-terminal, kept
B2: N-terminal FLAG-GFP-tagged full-length Kir4.1 (natural protein, UniProt P78508 1-379, looked up)
chain: MTSVAKVYYSQTTQTESRPLMGPGIRRRRVLTKDGRSNVRMEHIADKRFLYLKDLWTTFIDMQWRYKLLLFSATFAGTWFLFGVVWYLVAVAHGDLLELDPPANHTPCVVQVHTLTGAFLFSLESQTTIGYGFRYISEECPLAIVLLIAQLVLTTILEIFITGTFLAKIARPKKRAETIRFSQHAVVASHNGKPCLMIRVANMRKSLLIGCQVTGKLLQTHQTKEGENIRLNQVNVTFQVDTASDSPFLILPLTFYHVVDETSPLKDLPLRSGEGDFELVLILSGTVESTSATCQVRTSYLPEEILWGYEFTPAISLSASGKYIADFSLFDQVVKVASPSGLRDSTVRYGDPEKLKLEESLREQAEKEGSALSVRISNV
notes: Kir4.1 (KCNJ10), full length; also called F-GFP-Kir4.1; Kir4.1-WT; source: in detergent-solubilized membrane fraction, and purified; not shown: FLAG, N-terminal, kept; GFP, N-terminal, kept
B3: full-length Kir4.1, N-terminal tags cleaved off (natural protein, UniProt P78508 1-379, looked up)
chain: MTSVAKVYYSQTTQTESRPLMGPGIRRRRVLTKDGRSNVRMEHIADKRFLYLKDLWTTFIDMQWRYKLLLFSATFAGTWFLFGVVWYLVAVAHGDLLELDPPANHTPCVVQVHTLTGAFLFSLESQTTIGYGFRYISEECPLAIVLLIAQLVLTTILEIFITGTFLAKIARPKKRAETIRFSQHAVVASHNGKPCLMIRVANMRKSLLIGCQVTGKLLQTHQTKEGENIRLNQVNVTFQVDTASDSPFLILPLTFYHVVDETSPLKDLPLRSGEGDFELVLILSGTVESTSATCQVRTSYLPEEILWGYEFTPAISLSASGKYIADFSLFDQVVKVASPSGLRDSTVRYGDPEKLKLEESLREQAEKEGSALSVRISNV
notes: Kir4.1 (KCNJ10) inwardly rectifying potassium channel, full length; Purified as a tetramer that carries copurified endogenous LC8; also called KCNJ10; Kir4.1 WT; source: purified (FLAG resin, eluted by HRV 3C cleavage, Superose 6 SEC); not shown: FLAG, N-terminal, cleaved; GFP, N-terminal, cleaved

Molecular target: the molecule itself
Experiment: SEC; purified Kir4.1 proteins on a Superose 6 column in glyco-diosgenin-containing buffer; pH 8.0 and pH 6.0 for the WT without tags; tetramer peak

Stoichiometry N, 4:
B1
B2
B3
